Data on one molecule can be found in patent US20220273573A1, “SOLID DISPERSION GENISTEIN COMPOSITIONS AND METHODS OF MAKING AND USING THE SAME” (priority 2020, published 2022).

In the assay the test system is mice exposed to bilateral whole-body irradiation. The assay is described as follows: Prophylactic efficacy, 180-day survival after whole-body irradiation. In kind it is in vivo. The note with it: single subcutaneous injection 0.3 mg/kg 24 hours after 9.2 Gy whole-body irradiation. On the procedure:
In another study, selected samples of Example 3 were each orally administered at 200 mg Genistein/kg twice per day to groups of mice for 6 consecutive days. A separate vehicle control and genistein group was included for each sample formulation. The mice were then exposed to bilateral whole-body irradiation at a dose of 9.2 Gy at 0.6 Gy/min and the 180-day survival rate was observed. As additional controls, an injectable suspension (200 mg Genistein/kg) and corresponding vehicle were also administered to groups of mice via intramuscular injection 24 hours prior to exposure to bilateral whole-body irradiation at a dose of 9.2 Gy at 0.6 Gy/min. A separate group of mice was also administered a single subcutaneous injection of Neulasta® (0.3 mg/kg), an FDA-approved radiation treatment drug, 24 hours after exposure to bilateral whole-body irradiation at a dose of 9.2 Gy at 0.6 Gy/min. The results of this study are shown in Table 5 as percentage of surviving animals, and the number of surviving animals compared to the total number of animals in the study and depicted in FIG. 3.

B1: Neulasta ®: an FDA-approved radiation treatment drug, single subcutaneous injection (protein, UniProt P09919 31-207, looked up)
Granulocyte …: TPLGPASSLPQSFLLKCLEQVRKIQGDGAALQEKLVSECATYKLCHPEELVLLGHSLGIPWAPLSSCPSQALQLAGCLSQLHSGLFLYQGLLQALEGISPELGPTLDTLQLDVADFATTIWQQMEELGMAPALQPTQGAMPAFASAFQRRAGGVLVASHLQSFLEVSYRVLRHLAQP
modifications: pegfilgrastim; PEG, N-terminal Met
notes: an FDA-approved radiation treatment drug, single subcutaneous injection
As for B1, the “180-Day Survival” value was 56% (9/16).
